Test results published in patent publication US20250205324A1, “ANTIGENIC PEPTIDES FOR PREVENTION AND TREATMENT OF CANCER” (ENTEROME S.A., priority 2022, published 2025).
Entries after “also recorded” stand apart in the source; their conditions may differ. Read-outs that look alike come from different tables or passages of the source. Where no end group is shown, it is not given here.

How the values were obtained:
[1] = biological target: T1, HLA-A*0201 (Homo sapiens, UniProt P04439, D140Y/D185E/D98H/E176V/E277Q/G131W/G231S/I119V/I121R/I166T/I218V/L300P/L318F/N151K/N90K/P208A/P217A/Q86G/Q94H/R138H/R169H/T345S); test: Affinity of the peptide to T2 cell line (HLA-A*0201 binding, FACS with anti-HLA-A2 antibody); conditions: T2 cells
T1 construct: human tumoral cell T2 which expresses the HLA-A*0201 molecule; endogenous in cells; host or cells: T2 cells (human, TAP1/2 negative)
Experimental: (§1) T2 cells (5·10^4 cells per well) are incubated with decreasing concentrations of peptides from 100 μM to 0.1 μM (4 points: 100 μM, 10 μM, 1 μM, 0.1 μM) in serum-free medium (TexMacs) supplemented with 100 ng/μl of 2 Microglobulin at 37° C. for 16 hours.
The analysis is achieved by FACS (Macsquant analyzer 10 or a Macsquant analyzer 16-Miltenyi).

[2] = test system: T2 cell lines loaded with bacterial peptide or human counterpart peptide; test: Cytotoxic assay of peptide-specific CD8+ T cells against peptide-loaded T2 cells; type: cell-based
From the text: CD8+ T cells expanded per above were used to perform cytotoxic assays in presence of different ratios of target and effector cells to assess their cytotoxic capacity, using flow cytometry readout. Target cells were T2 cell lines loaded with bacterial peptide or human counterpart peptide. As a negative control T2 cells unloaded and T2 cells loaded with irrelevant peptide were employed.

[3] = test system: HHD DR1 HLA-A2 transgenic mice; test: ELISPOT-IFNγ assay on splenocytes of vaccinated HLA-A2 transgenic mice; type: in vivo, mouse
Experimental: Briefly, HLA-A2 HHD-DR1 humanized mice (C57BL/6JB2mtm1UnclAb−/−Tg(HLA-DRA, HLA-DRB1*0101)#GjhTg(HLA-A/H2-D/B2M)1 Bpe) were assigned randomly (based on mouse sex and age) to experimental groups, wherein each group was immunized with a specific vaccination peptide (vacc-pAg) combined to a common helper peptide (h-pAg UCP2; sequence: […]; SEQ ID NO: 39) (as outlined in Table 6 below).
The peptide formulation to be injected (emulsion) was prepared freshly on each day of injection and for each group. A mix for 10 animals was prepared using 2 mL luer lock syringes (4606701 V, B BRAUN) and luer lock female-female Combifix® Adapter (B. Braun, 5206634): 500 μL of peptide mixture in syringe 1 was emulsified with 500 μL of Montanide ISA 51 VG (Seppic) contained in syringe 2. The emulsification process was performed first by pushing the peptide mixture contained in syringe 1 into syringe 2 (containing Montanide) at very low speed. Transfer of the mixture from one syringe to another was then performed at very low speed during 6 cycles (one cycle corresponding to one passage from one syringe to another), and secondly at high speed, as fast as possible, for 1 minute. Each emulsion was prepared in excess to compensate for the dead volumes at injection.
The animals were immunized on day 0 (d0) with a prime injection, and on d14 with a boost injection. Each mouse was injected s.c. on the loose skin over the neck of the animals with 100 μL of an oil-based emulsion that contained: • 30 nmol of vacc-pAg and 30 or 100 μg of UCP2 helper peptide in 50 μL of a dedicated final solvent • Montanide ISA 51 VG (Seppic) added at 1:1 (v:v) ratio (50 μL per mouse).
Seven days after the boost injection (i.e. on d21), the animals were euthanized and the spleen was harvested. Splenocytes were prepared by mechanical disruption of the organ followed by 70 μm-filtering and Red blood cell lysis.
The cell suspensions were further used in an ELISPOT-IFN assay (Table 5). The cells were cultured in 200 μL of complete T cell medium. Experimental conditions (duplicates) were as follow: 2×10^5 total cells per well when cultured in presence of various pAg (10 μM) or medium-only; and 2×10^4 total cells when cultured in presence of the positive control PMA/lonomycin (PMA: Sigma P8139: 0.1 μM final; lonomycin: Sigma 10634: 1 μM final). The cultures were assessed for their capacity to secrete IFN (mouse IFN-ELISpotPLUS kit, Mabtech 3321-4APT-10), following the manufacturer's instructions (˜12-48h incubation time before performing the assay). The peptides used for restimulation are described in Table 7.
Spots were counted on a an iSpot Fluorospot Reader System (AID). Data plotting and statistical analysis were performed with the Prism-9 software (GraphPad Software Inc.).
The data were provided as a number of spots per 1·10^6 total T cells. The individual average values (obtained from the duplicates) were next used to plot the group average values. Statistical analysis for comparison (to the irrelevant peptide condition) were performed using unpaired non-parametric test (Mann Whitney) (**: p<0.01; *: p<0.05).

[4] = biological target: T2, HLA-A*0201 molecule expressed on human T2 cells (human); test: T2 cell HLA-A*0201 binding assay, anti-HLA-A2-PE flow cytometry
T2 construct: surface HLA-A2 detected with anti-HLA-A2-PE (clone REA517); also called HLA-A2
Experimental: as §1, with “(5·10⁴” for “(5·10^4”, “hours. Cells are then washed two times and marked with the anti-HLA-A2 antibody coupled to PE (clone REA517, Miltenyi).” for “hours.”
For each peptide concentration, the geometric mean of the labelling associated with the peptide of interest is subtracted from background noise and reported as a percentage of the geometric mean of the HLA-A*0202 labelling obtained for the reference peptide HIV pol 589-597 at a concentration of 100 μM.

[5] = T cell clones expanded in vitro, flow cytometry readout (FIG. 18)

AINPELLQL (listed as Homo sapiens) [KIF2C-H1]
Concentration of peptide that induces 20% of HLA-A2 expression [1]: 22.55 µM

ALNPELLAL [KIF2C-B1, ALNPELLAL]
cytotoxic capacity of peptide-specific T cells against T2 cells loaded with bacterial or human peptides [2]: have the ability to kill T2 cells loaded with bacterial or human peptides
cytotoxic capacity of peptide-specific human T cell clones against T2 cells loaded with the bacteria peptide [2]: have the capacity to kill T2 cells
cytotoxic capacity of peptide-specific human T cell clones against T2 cells loaded with the human peptide [2]: able to kill T2 cells loaded with the human

ALYDVRTIL (listed as Homo sapiens) [UBE2C-H1]
Concentration of peptide that induces 20% of HLA-A2 expression [1]: 14.98 µM

ALYDVRTILL (listed as Homo sapiens) [UBEC2-H11]
Concentration of peptide that induces 20% of HLA-A2 expression [1]: 14.87 µM

AQIGIVAVV (listed as Homo sapiens) [OR51E2-H1]
Concentration of peptide that induces 20% of HLA-A2 expression [1]: 5.68 µM

AVIGIVAAV [OR51E2-B1]
Concentration of peptide that induces 20% of HLA-A2 expression [1]: 0.7 µM

FLYDVRTYL [UBE2C-B1]
cytotoxic capacity of peptide-specific human T cell clones against T2 cells loaded with the bacteria peptide [2, 5]: have the capacity to kill T2 cells
cytotoxic capacity of peptide-specific human T cell clones against T2 cells loaded with the human peptide [2, 5]: able to kill T2 cells loaded with the human
cytotoxic capacity of peptide-specific T cells against T2 cells loaded with bacterial or human peptides ([2]; legend of FIG. 18): have the ability to kill T2 cells loaded with bacterial or human peptides

ILLSIQSLL (listed as Homo sapiens) [UBE2C-H2]
Concentration of peptide that induces 20% of HLA-A2 expression [1]: 3.27 µM

IVWSDVTYV [MMP11-B1]
Concentration of peptide that induces 20% of HLA-A2 expression [1]: 0.08 µM

KIIGIILAV [CDH17-B1]
immunogenicity: T cell response in ELISPOT-IFNγ ([3]; 30 nmol peptide + UCP2 helper in Montanide ISA 51 VG s.c., prime d0, boost d14, spleen d21, restimulation 10 μM): induced significant T cell responses; also recorded: strongly immunogenic; also recorded: induced strong immune responses
cross-reactivity of induced T cells with the corresponding human peptide in ELISPOT-IFNγ ([3]; prime d0, boost d14, spleen d21, challenge with human peptide 10 μM): able to drive an effective immune response against the corresponding human peptide; also recorded: Cross-reactivity

KILDTVHSC (listed as Homo sapiens) [ANKRD30A-H2]
Concentration of peptide that induces 20% of HLA-A2 expression [1]: 25.32 µM

KVWSDVTPL (listed as Homo sapiens) [MMP11-H1]
Concentration of peptide that induces 20% of HLA-A2 expression [1]: 0.65 µM

LILDTVHSL [ANKRD30A-B2]
Concentration of peptide that induces 20% of HLA-A2 expression [1]: 1.13 µM

LVIGIILAV (listed as Homo sapiens) [CDH17-H1]
Concentration of peptide that induces 20% of HLA-A2 expression [1]: 14.06 µM

QMNPELLTL [KIF2C-B11]
Concentration of peptide that induces 20% of HLA-A2 expression [1]: 0.909 µM

RLQQELMTL (listed as Homo sapiens) [UBE2C-H3]
Concentration of peptide that induces 20% of HLA-A2 expression [1]: 1.06 µM

SLDQKLFQL (listed as Homo sapiens) [ANKRD30A-H3]
Concentration of peptide that induces 20% of HLA-A2 expression [1]: 0.32 µM

SLLSIQSYV [UBE2C-B2]
Concentration of peptide that induces 20% of HLA-A2 expression [1]: 0.22 µM

SLPDRILTV [CDC20-B1]
cytotoxic capacity of peptide-specific T cells against T2 cells loaded with bacterial or human peptides [2]: have the ability to kill T2 cells loaded with bacterial or human peptides
cytotoxic capacity of peptide-specific human T cell clones against T2 cells loaded with the bacteria peptide [2]: have the capacity to kill T2 cells
cytotoxic capacity of peptide-specific human T cell clones against T2 cells loaded with the human peptide [2]: able to kill T2 cells loaded with the human

TLDQKLFMV [ANKRD30A-B3]
Concentration of peptide that induces 20% of HLA-A2 expression [1]: 0.14 µM

VLNPELLML [KIF2C-B13]
Concentration of peptide that induces 20% of HLA-A2 expression [1]: 0.189 µM

VMNPELLLL [KIF2C-B12]
Concentration of peptide that induces 20% of HLA-A2 expression [1]: 0.258 µM

YLILEYAPL (listed as Homo sapiens) [AURKA-H1]
Concentration of peptide that induces 20% of HLA-A2 expression [1]: 12.2 µM

YLYDVRTAL [UBE2C-B11, b339 prints …]
Concentration of peptide that induces 20% of HLA-A2 expression [1]: 0.87 µM

B1: AURKA-H1 (peptide)
peptide: YLILEYAPL
concentration of peptide that induces 20% of HLA-A2 expression [4]: 12.2 µM
in vitro binding affinity (relative affinity, normalized against HIV-pol) [4]: 22.8 ratio to HIV pol reference peptide
mean relative fluorescence intensity at 0.1 µM peptide [4]: 0 % of HIV pol reference peptide
mean relative fluorescence intensity at 1 µM peptide [4]: 0 % of HIV pol reference peptide
mean relative fluorescence intensity at 10 µM peptide [4]: 13.1 % of HIV pol reference peptide
mean relative fluorescence intensity at 100 µM peptide [4]: 164 % of HIV pol reference peptide

B2: ANKRD30A-H3 (peptide)
peptide: SLDQKLFQL
concentration of peptide that induces 20% of HLA-A2 expression [4]: 0.32 µM
in vitro binding affinity (relative affinity, normalized against HIV-pol) [4]: 0.4 ratio to HIV pol reference peptide
mean relative fluorescence intensity at 0.1 µM peptide [4]: 5.9 % of HIV pol reference peptide
mean relative fluorescence intensity at 1 µM peptide [4]: 41.9 % of HIV pol reference peptide
mean relative fluorescence intensity at 10 µM peptide [4]: 99.1 % of HIV pol reference peptide
mean relative fluorescence intensity at 100 µM peptide [4]: 97.1 % of HIV pol reference peptide

B3: ANKRD30A-H2 (peptide)
peptide: KILDTVHSC
concentration of peptide that induces 20% of HLA-A2 expression [4]: 25.3 µM
in vitro binding affinity (relative affinity, normalized against HIV-pol) [4]: 29.9 ratio to HIV pol reference peptide
mean relative fluorescence intensity at 0.1 µM peptide [4]: 1.2 % of HIV pol reference peptide
mean relative fluorescence intensity at 1 µM peptide [4]: 1.8 % of HIV pol reference peptide
mean relative fluorescence intensity at 10 µM peptide [4]: 8.7 % of HIV pol reference peptide
mean relative fluorescence intensity at 100 µM peptide [4]: 52.3 % of HIV pol reference peptide

B4: AURKA-B1 (peptide)
peptide: YLILEYATV
notes: also called ENT199_B1
concentration of peptide that induces 20% of HLA-A2 expression [4]: 1.16 µM

B5: CDH17-H1 (peptide)
peptide: LVIGIILAV
notes: also called ENT176-H
concentration of peptide that induces 20% of HLA-A2 expression [4]: 14.1 µM
in vitro binding affinity (relative affinity, normalized against HIV-pol) [4]: 14.9 ratio to HIV pol reference peptide
mean relative fluorescence intensity at 0.1 µM peptide [4]: 0.5 % of HIV pol reference peptide
mean relative fluorescence intensity at 1 µM peptide [4]: 3.7 % of HIV pol reference peptide
mean relative fluorescence intensity at 10 µM peptide [4]: 17.6 % of HIV pol reference peptide

B6: CDH17-B1 (peptide)
peptide: KIIGIILAV
notes: also called ENT176_B1; ENT_176-B1
concentration of peptide that induces 20% of HLA-A2 expression [4]: 0.2 µM

B7: ANKRD30A-B3 (peptide)
peptide: TLDQKLFMV
notes: also called ENT180_B1
concentration of peptide that induces 20% of HLA-A2 expression [4]: 0.14 µM
in vitro binding affinity (relative affinity, normalized against HIV-pol) [4]: 0.2 ratio to HIV pol reference peptide
mean relative fluorescence intensity at 0.1 µM peptide [4]: 18.8 % of HIV pol reference peptide
mean relative fluorescence intensity at 1 µM peptide [4]: 67.5 % of HIV pol reference peptide
mean relative fluorescence intensity at 10 µM peptide [4]: 120 % of HIV pol reference peptide
mean relative fluorescence intensity at 100 µM peptide [4]: 112 % of HIV pol reference peptide

B8: CEACAM5-B1 (peptide)
peptide: YLSGANLFV
notes: also called CEACAM-B1; ENT188_B1
concentration of peptide that induces 20% of HLA-A2 expression [4]: 0.5 µM
in vitro binding affinity (relative affinity, normalized against HIV-pol) [4]: 0.5 ratio to HIV pol reference peptide
mean relative fluorescence intensity at 0.1 µM peptide [4]: 7.7 % of HIV pol reference peptide
mean relative fluorescence intensity at 1 µM peptide [4]: 30.8 % of HIV pol reference peptide
mean relative fluorescence intensity at 10 µM peptide [4]: 69.2 % of HIV pol reference peptide
mean relative fluorescence intensity at 100 µM peptide [4]: 76 % of HIV pol reference peptide
